Consider three compounds from patent US20030198598A1, “Polypeptide derivatives” (priority 1989, published 2003).

pIC50: −log10 of the molar value. Where a SMILES comes first, the peptide text is derived from it. [ ]: non-standard residue; d: D form. The star is where a group is joined. DTPA = O=C(O)CN(CCN(CC(=O)O)CC(=O)O)CCN(CC(=O)O)CC(=O)*; dPhe(4-Cl) = N[C@H](Cc1ccc(Cl)cc1)C(=O)O

In one data set the target is T1, LHRH-receptors (Rattus norvegicus, UniProt P30969).
T1 construct: LHRH receptor positive anterior pituitary membranes from male Sprague-Dawley rats; from tissue; host or cells: anterior pituitary membranes of male Sprague-Dawley rats
T1 sequence (P30969 1-327): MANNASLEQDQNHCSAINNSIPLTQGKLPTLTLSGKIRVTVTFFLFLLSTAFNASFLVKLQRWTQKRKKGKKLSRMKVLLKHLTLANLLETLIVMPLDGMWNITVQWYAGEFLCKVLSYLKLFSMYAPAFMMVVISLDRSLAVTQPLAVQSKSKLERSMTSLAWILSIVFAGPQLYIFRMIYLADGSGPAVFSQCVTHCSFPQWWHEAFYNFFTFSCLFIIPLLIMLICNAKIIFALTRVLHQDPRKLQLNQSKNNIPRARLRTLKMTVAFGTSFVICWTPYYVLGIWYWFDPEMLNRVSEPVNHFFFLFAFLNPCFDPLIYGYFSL
Description: Binding assay on LHRH receptor positive anterior pituitary membranes. On the set-up: species or system male Sprague-Dawley rats. To be noted: labelled with 0.4 mCi 111InCl3, 10^-6 M (DAla6)LHRH for non-specific binding.

In data set [1] the target is T2, EGF receptor (Homo sapiens, UniProt P00533).
T2 construct: Membranes are isolated by differential centrifugation; from tissue; host or cells: EGF receptor positive human tumor (membranes)
The data set is described as follows: Inhibition of specifically bound [125I]-EGF on membranes of an EGF receptor positive human tumor. It is filed as binding. As to conditions: 30 min at 37° C. The protocol: (§1) An EGF receptor positive human tumor is removed and immediately stored at −70° C. During the subsequent isolation procedure this material is kept at 0 to 4° C. The tumor tissue is dissected into small cubes prior to homogenisation in 5 parts of Buffer A (20 mM HEPES, 0.1 mM EDTA and 250 mM sucrose, pH 7.4). Membranes are isolated by differential centrifugation. The material is then diluted in the incubation buffer containing 30 mM HEPES, pH 7.4, 1 mg/ml BSA and 1 mM benzamidine. The test mixture (200 μl final volume) contains 100 000 cpm [^125I]-EGF, the tissue (5 to 25 μg protein/assay) and compound of Example 3 at a concentration of 10^−9 M. After mixing the icecold test solution on a vortex the tubes (polypropylene) are transfered to a waterbath and incubated for 30 min at 37° C. The reaction is stopped by addition of icecold Hank's or Tris buffer (4 ml). The Tris buffer contains 10 mM Tris in 0.9% sodium chloride solution and is adjusted to pH 7.4. Routinely, filtration buffers contain 1% BSA (Fraction V) to suppress non-specific binding to the glass fiber filters (type A/E) that have been soaked in the filtration buffer a few minutes prior to use. The tubes are rinsed with 4 ml of the filtration buffer and the rinsing fluid is put over the respective filters. A third wash of the filters is followed by drying and the measurement of the filter-bound radioactivity in a γ-counter. […]

Data set [2] concerns EGF receptor positive tumour (MDA 231, MDA 468 or A 431 tumors). On the set-up: species or system nude mice. As to conditions: mouse, in vivo, iv. The method, then:
Biodistribution of radioactivity may be determined either with standard imaging techniques in nude mice weighing 20+5 g and bearing an EGF receptor positive tumour (MDA 231, MDA 468 or A 431 tumors) or through serial sacrifice of a number of such animals and determination of the organ radioactivity. Compound of Example 4 is administered i.v. to the animals at a dosage corresponding to 90-10 μCi and the radioactivity is assessed 5 min, 10 min, 15 min, 30 min, 60 min, 20 hrs and 48 hrs.

Data set [3] has as its target T2, EGF receptor. The data set is described as follows: Similar binding assay with the 111In labelled compound as test substance, non-specific binding with 10^-7 M EGF. As to conditions: compound of Example 3 labelled with 0.2 mCi 111InCl3; controls with 10^-7 M EGF. The protocol:
as §1, with “The test mixture (200 μl final volume) contains 100 000 cpm [^125I]-EGF, the tissue (5 to 25 μg protein/assay) and compound of Example 3 at a concentration of 10^−9 M.” left out, “γ-counter. The washing of the filters takes approximately 10 sec.” for “γ-counter.”

One may read the pIC50 as −log10 of the IC50, conventionally taken in molar units. A low value points to a large IC50. `CC(=O)N[C@H](Cc1ccc(Cl)cc1)C(=O)N[C@H](Cc1ccc(Cl)cc1)C(=O)N[C@H](Cc1c[nH]c2ccccc12)C(=O)N[C@@H](CO)C(=O)N[C@@H](Cc1ccc(O)cc1)C(=O)N[C@H](CCCCNC(=O)CN(CCN(CCN(CC(=O)O)CC(=O)O)CC(=O)O)CC(=O)O)C(=O)N[C@@H](CC(C)C)C(=O)N[C@@H](CCCNC(=N)N)C(=O)N1CCC[C@H]1C(=O)N[C@H](C)C(N)=O` [^111In labelled compound of Example 8, metal not drawn] (Ac-[dPhe(4-Cl)][dPhe(4-Cl)][dW]SY[dK](DTPA)LRP[dA]-NH2): the pIC50 at LHRH-receptors is 8.96.

DTPA-β-Ala-mEGF [Example 3] had a pIC50 with EGF receptor [1] of 8.89. Turning to “^111In Labeled DTPA-β-Ala-mEGF [Example 4]”, in data set [2], the “Localisation of radioactivity 5 minutes after injection” value was “radioactivity is detected in the liver, kidneys, urinary bladder and in the tumor site”; the “Localisation of radioactivity 60 min after injection” value is “Radioactivity is increasing and is localized on the tumor site”. The pIC50 with EGF receptor [3] was 8.52.
